For assay [1], the target named is Venezuelan equine encephalitis virus (VEEV) virus-like particles (Venezuelan equine encephalitis virus, strain TC-83) (UniProt P09592). Briefly: cryo-EM structure.
Assay [2] shares this target. Briefly: SPR; Biacore T200; […]; 30 µl/min, 25 °C, HBS-P plus 1 mM CaCl2; global 1:1 fit; […]. Background: Surface plasmon resonance follows binding to a sensor surface in real time, without labels.

Sequence of LDLRAD3(D1), cleaved monomeric ectodomain of mouse low-density lipoprotein receptor class A domain-c (A2AR95 18-70): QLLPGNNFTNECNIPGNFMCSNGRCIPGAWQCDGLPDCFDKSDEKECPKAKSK
Sequence of LDLRAD3(D1+D2), cleaved monomeric ectodomain of mouse LDLRAD3, domains 1 and 2 (A2AR95 18-112): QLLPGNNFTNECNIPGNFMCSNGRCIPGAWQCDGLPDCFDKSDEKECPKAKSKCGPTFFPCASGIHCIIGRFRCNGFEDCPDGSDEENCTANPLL

“LDLRAD3(D1), cleaved monomeric ectodomain of mouse low-density lipoprotein receptor class A domain-c (from UniProt A2AR95 18-70) (domain or fragment)” displayed a stoichiometry N (molecules of LDLRAD3(D1) per VLP) in assay [1] of 240.

Regarding “LDLRAD3(D1+D2), cleaved monomeric ectodomain of mouse LDLRAD3, domains 1 and 2 (from UniProt A2AR95 18-112) (domain or fragment)”, the Kd in assay [2] was 50 nM.

By Kd is commonly meant the constant that tells how readily two partners part at equilibrium.

(Values after article PMC8550936.)
